Measured values reported in patent US6995240.

Target: HLA-DR on rheumatoid synovial fluid mononuclear cells (human)
Test: cell-based or functional assay

inhibition of rheumatoid synovial fluid T cell proliferation to p78: 66 to 84%
Substance: anti-HLA-DR monoclonal antibody L243 (ATCC)
